Patent US20260217862A1 (NBIOS, published 2026)

Target: T1, Human Integrin αVβ3 (human, UniProt P06756 31-992; P05106 27-718)
T1 construct: Commercial heterodimer from ACROBiosystems; No catalogue number or construct limits are printed; also called Integrin aVß3; integrin (ITG)
Assay: ELISA, CtsZ coated 200 ng/well, integrin αVβ3 titrated from 200 nM in 1/3 steps, detected with biotinylated anti-integrin alpha V antibody and streptavidin-HRP
Method: After coating 1×PBS (pH 7.4) containing 200 ng of CtsZ in each well of a 96-well high-binding plate at 4° C. for 16 hours, followed by washing twice with a washing buffer (20 mM Tris-HCl, 150 mM NaCl, 1 mM MnCl₂, 0.05% Tween-20), blocking was performed at room temperature for 2 hours using a blocking buffer (washing buffer containing 3% BSA). After washing twice with a washing buffer, binding was performed at room temperature for 2 hours using a dilution buffer (washing buffer containing 0.5% BSA) containing 200 nM, ⅓ eq. integrin αVβ3. After washing 4 times with a washing buffer, biotinylated anti-human integrin alpha V antibody (diluted to 1:100 with dilution buffer) was treated at room temperature for 1 hour. After washing 4 times with a washing buffer, HRP-conjugated streptavidin was treated at room temperature for 1 hour. After washing 4 times with a washing buffer, followed by addition of ultra TBM matrix, reaction was performed for 2 minutes and the reaction was stopped by adding 2 M H₂SO₄. KD values were calculated from the absorbance at 450 nm using the Prism7 software.
Because CtsZ has an RGD motif binding to integrin, particularly integrin αVβ3, in the pro-region, it was investigated whether the purified CtsZ was in active form by measuring binding affinity for integrin αVβ3 purchased from ACROBiosystems.

T1 sequence (P06756 31-992 limits assumed, chain 1 of 2): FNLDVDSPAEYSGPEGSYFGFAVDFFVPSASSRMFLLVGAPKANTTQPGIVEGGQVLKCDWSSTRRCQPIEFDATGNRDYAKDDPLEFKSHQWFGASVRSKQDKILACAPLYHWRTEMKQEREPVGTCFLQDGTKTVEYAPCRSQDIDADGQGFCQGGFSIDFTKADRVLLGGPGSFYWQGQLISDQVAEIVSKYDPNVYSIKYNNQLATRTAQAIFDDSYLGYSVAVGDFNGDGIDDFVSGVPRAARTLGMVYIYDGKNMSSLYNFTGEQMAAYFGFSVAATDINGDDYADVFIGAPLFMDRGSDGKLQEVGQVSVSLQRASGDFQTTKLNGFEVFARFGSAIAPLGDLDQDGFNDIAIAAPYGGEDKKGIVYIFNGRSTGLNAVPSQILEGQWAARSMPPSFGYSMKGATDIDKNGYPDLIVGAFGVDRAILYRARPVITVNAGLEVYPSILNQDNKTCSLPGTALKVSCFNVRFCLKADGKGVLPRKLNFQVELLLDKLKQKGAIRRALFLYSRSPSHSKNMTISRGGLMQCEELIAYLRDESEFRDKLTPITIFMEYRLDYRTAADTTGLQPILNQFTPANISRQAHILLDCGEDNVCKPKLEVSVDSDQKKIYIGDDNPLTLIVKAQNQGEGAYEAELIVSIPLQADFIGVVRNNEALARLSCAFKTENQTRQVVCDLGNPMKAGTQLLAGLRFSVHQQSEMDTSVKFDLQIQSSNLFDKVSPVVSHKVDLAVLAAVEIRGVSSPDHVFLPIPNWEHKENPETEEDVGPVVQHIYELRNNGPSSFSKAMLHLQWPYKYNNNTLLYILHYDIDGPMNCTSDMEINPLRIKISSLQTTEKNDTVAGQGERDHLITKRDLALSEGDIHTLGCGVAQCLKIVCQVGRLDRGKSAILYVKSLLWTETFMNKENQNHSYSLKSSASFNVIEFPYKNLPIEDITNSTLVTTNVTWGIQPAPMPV
T1 sequence (P05106 27-718 limits assumed, chain 2 of 2): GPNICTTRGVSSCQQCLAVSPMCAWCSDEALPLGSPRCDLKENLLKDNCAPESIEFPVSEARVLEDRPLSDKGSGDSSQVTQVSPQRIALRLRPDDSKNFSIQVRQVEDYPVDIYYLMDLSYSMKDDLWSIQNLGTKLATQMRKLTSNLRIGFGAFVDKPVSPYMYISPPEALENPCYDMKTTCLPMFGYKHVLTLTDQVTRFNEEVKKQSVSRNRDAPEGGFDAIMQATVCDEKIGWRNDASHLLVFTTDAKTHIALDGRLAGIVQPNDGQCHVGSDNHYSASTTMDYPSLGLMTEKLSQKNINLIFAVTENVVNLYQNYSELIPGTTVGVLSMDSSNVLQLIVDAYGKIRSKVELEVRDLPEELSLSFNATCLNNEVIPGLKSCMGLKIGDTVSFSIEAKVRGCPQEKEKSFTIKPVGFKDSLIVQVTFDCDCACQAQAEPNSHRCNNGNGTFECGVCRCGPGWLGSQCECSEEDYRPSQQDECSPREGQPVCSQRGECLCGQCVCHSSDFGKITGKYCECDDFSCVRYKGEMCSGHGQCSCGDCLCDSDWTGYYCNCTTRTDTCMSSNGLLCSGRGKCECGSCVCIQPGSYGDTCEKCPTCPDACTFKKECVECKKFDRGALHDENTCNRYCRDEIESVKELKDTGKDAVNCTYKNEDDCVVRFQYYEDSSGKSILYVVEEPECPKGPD

- Kd: ~0.137 µM
B1: recombinant human cathepsin Z with C-terminal 6x-His tag (enzyme)
chain: not shown
notes: Secreted from Expi-293F cells and purified on Ni-NTA; Glycosylated, about 37 kDa on SDS-PAGE against 33 kDa predicted; also called CtsZ; purified CtsZ
